Assays:
human CS1 [1] = biological target: T1, human CS1 (Homo sapiens, UniProt Q9NQ25); assay: Flow-cytometry competition assay with AF488-labeled elotuzumab; format: binding; details: 293s cells transfected with human CS1; 100 μg/mL test antibody, 10 μg/mL labeled elotuzumab
T1 construct: expressed in transfected cells; host or cells: 293s cells
Protocol: A similar experiment was conducted with AF488-labeled elotuzumab at 10 μg/mL. Transfected 293s cells (300,000 cells per data point) were incubated for 30 min (on ice) with a tenfold excess of unlabeled antibody (100 μg/mL). After the incubation, 10 μg/mL of AF488-labeled elotuzumab was added to the cells and incubated on ice for 30 minutes. After this incubation, the cells were washed with PBS+1% FBS and binding of AF488-labeled elotuzumab determined by flow cytometry.

HuCS1 = biological target: T2, HuCS1 (Homo sapiens, UniProt Q9NQ25); assay: Flow-cytometry competition assay with AF488-labeled Luc34.3.8 on L-363 cells; format: binding; details: 20 μg/mL test antibody, 2 μg/mL labeled Luc34.3.8
T2 construct: L-363 cells (human multiple myeloma cell line) expressing HuCS1; endogenous in cells; host or cells: L-363 human multiple myeloma cell line
T2 sequence (Q9NQ25 23-335): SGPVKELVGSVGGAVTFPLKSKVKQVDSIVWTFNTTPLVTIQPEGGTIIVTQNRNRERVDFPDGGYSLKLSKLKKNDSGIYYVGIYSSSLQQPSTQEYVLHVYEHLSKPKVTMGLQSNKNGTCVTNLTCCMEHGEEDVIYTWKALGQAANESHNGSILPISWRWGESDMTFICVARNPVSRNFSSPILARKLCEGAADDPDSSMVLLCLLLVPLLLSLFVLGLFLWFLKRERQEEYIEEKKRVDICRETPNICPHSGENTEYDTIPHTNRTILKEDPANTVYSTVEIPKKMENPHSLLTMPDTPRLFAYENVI
Protocol: A similar experiment was conducted with AF488-labeled Luc34.3.8 at 2 μg/mL. L-363 cells (human multiple myeloma cell line) expressing HuCS1 (300,000 cells per data point) was incubated for 30 min (on ice) with a tenfold excess of unlabeled test antibody (20 μg/mL). After the incubation, 2 μg/mL of AF488-labeled Luc34.3.8 was added to the cells and incubated on ice for 30 minutes. After this incubation, the cells were washed with PBS+1% FBS, and binding of AF488-labeled […] determined by flow cytometry.

human CS1 [2] = biological target: T1, human CS1; assay: Flow-cytometry competition assay with AF488-labeled Hu34C3; format: binding; details: 293s cells transfected with human CS1; 100 μg/mL test antibody, 10 μg/mL labeled Hu34C3
Protocol: For the competition assays, transfected 293s cells (300,000 cells per data point) were incubated for 30 min (on ice) with a tenfold excess of unlabeled test antibody (100 μg/mL).

human CS1 [3] = biological target: T1, human CS1; assay: Flow-cytometry competition assay with AF488-labeled PDL241 (humanized antibodies, Example 5); format: binding; details: 293s cells transfected with human CS1; 50 μg/mL test antibody, 5 μg/mL labeled PDL241
Protocol: 293s cells transfected with human CS1 were incubated at various concentrations with an AF488 labeled PDL241 antibody. […] Transfected 293s cells (300,000 cells per data point) were incubated for 30 min (on ice) with a tenfold excess of unlabeled test antibody (50 μg/mL). After the incubation, 5 μg/mL of AF488-labeled PDL241 was added to the cells and incubated on ice for 30 minutes. After this incubation, the cells were washed with PBS+1% FBS and binding of AF488-labeled PDL241 was determine by flow cytometry.

[4] = tested on: relapsed or refractory multiple myeloma; details: elotuzumab added to lenalidomide and dexamethasone vs lenalidomide and dexamethasone control group; cited from earlier work

T1 sequence (Q9NQ25 23-335): as above

Molecule | Competition with AF488-labeled elotuzumab for binding (human CS1 [1]) | Competition with AF488-labeled Luc34.3.8 for binding (HuCS1) | Competition with AF488-labeled Hu34C3 for binding (human CS1 [2]) | Competition with AF488-labeled PDL241 for binding (human CS1 [3]) | Relative reduction in the risk of disease progression or death [4] [%]
Hu31D2: humanized anti-CS1 antibody, VH SEQ ID NO: 16, VL SEQ ID NO: 19 (antibody, V domains shown) VH: EVQLVESGGGLVQPGGSLRLSCAASGFTFSDYYMAWVRQAPGKGLEWVADINYDGGSTYYLDSLKSRFTISRDNAKNSLYLQMNSLRAEDTAVYYCARDRGYYFDYWGQGTLVTVSS VL: DVVMTQSPLSLPVTPGEPASISCRSSQSLVHSNGNTYLHWYLQKPGQSPQLLIYKVSNRFSGVPDRFSGSGSGTDFTLKISRVEAEDVGVYFCSQSTHVPPFTFGGGTKVEIK | do not compete with, and bind different epitopes than, elotuzumab | do not compete with, and bind different epitopes than, Luc34.3.8 | None of the anti-CS1 antibodies tested (including Hu27A12 and Hu31D2) compete with Hu34C3 | do not compete with, and bind different epitopes than, PDL241 | –
Elotuzumab: monoclonal humanized IgG1 anti-CS1 antibody disclosed as HuLuc63 in U.S. Pat. No. 7,709,610 (antibody, V domains shown) VH: EVQLVESGGGLVQPGGSLRLSCAASGFDFSRYWMSWVRQAPGKGLEWIGEINPDSSTINYAPSLKDKFIISRDNAKNSLYLQMNSLRAEDTAVYYCARPDGNYWYFDVWGQGTLVTVSS VL: DIQMTQSPSSLSASVGDRVTITCKASQDVGIAVAWYQQKPGKVPKLLIYWASTRHTGVPDRFSGSGSGTDFTLTISSLQPEDVATYYCQQYSSYPYTFGQGTKVEIKR | – | – | – | – | 30
